In publication PMC3814365 (Nucleic Acids Research, 2013):

Biological target: Untagged Rps28a (S. cerevisiae, UniProt Q3E7X9 1-67)
Assay: SEC-MALS

Sequence of Untagged Rps28a (Q3E7X9 whole entry): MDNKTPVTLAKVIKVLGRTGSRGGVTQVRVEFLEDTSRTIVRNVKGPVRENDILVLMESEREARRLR

DDIDDPKYLPITQSLNITHLIHSATNSPSIN (peptide, UniProt P39998 201-231, looked up) [Edc3(201–231) lacking the His-GST tag] was tested, and the “stoichiometry N” value was 1.
